Experimental data: patent US20030235577A1, “Methods and compositions for preventing and treating microbial infections” (priority 2002, published 2003)

B1: MMP-12: functional full-length recombinant human MMP-12 (macrophage elastase), Genbank NP_002417 (protein, listed as Homo sapiens)
chain: MKFLLILLLQATASGALPLNSSTSLEKNNVLFGERYLEKFYGLEINKLPVTKMKYSGNLMKEKIQEMQHFLGLKVTGQLDTSTLEMMHAPRCGVPDLHHFREMPGGPVWRKHYITYRINNYTPDMNREDVDYAIRKAFQVWSNVTPLKFSKINTGMADILVVFARGAHGDFHAFDGKGGILAHAFGPGSGIGGDAHFDEDEFWTTHSGGTNLFLTAVHEIGHSLGLGHSSDPKAVMFPTYKYVDINTFRLSADDIRGIQSLYGDPKENQRLPNPDNSEPALCDPNLSFDAVTTVGNKIFFFKDRFFWLKVSERPKTSVNLISSLWPTLPSGIEAAYEIEARNQVFLFKDDKYWLISNLRPEPNYPKSIHSFGFPNFVKKIDAAVFNPRFYRTYFFVDNQYWRYDERRQMMDPGYPKLITKNFQGIGPKIDAVFYSKNKYYYFFQGSNQFEYDFLLQRITKTLKSNSWFGC
B2: MMP-2: commercially available full length pro-MMP 2 (protein, UniProt P08253 30-660, looked up)
pro-form: APSPIIKFPGDVAPKTDKELAVQYLNTFYGCPKESCNLFVLKDTLKKMQKFFGLPQTGDLDQNTIETMRKPRCGNPDVANYNFFPRKPKWDKNQITYRIIGYTPDLDPETVDDAFARAFQVWSDVTPLRFSRIHDGEADIMINFGRWEHGDGYPFDGKDGLLAHAFAPGTGVGGDSHFDDDELWTLGEGQVVRVKYGNADGEYCKFPFLFNGKEYNSCTDTGRSDGFLWCSTTYNFEKDGKYGFCPHEALFTMGGNAEGQPCKFPFRFQGTSYDSCTTEGRTDGYRWCGTTEDYDRDKKYGFCPETAMSTVGGNSEGAPCVFPFTFLGNKYESCTSAGRSDGKMWCATTANYDDDRKWGFCPDQGYSLFLVAAHEFGHAMGLEHSQDPGALMAPIYTYTKNFRLSQDDIKGIQELYGASPDIDLGTGPTPTLGPVTPEICKQDIVFDGIAQIRGEIFFFKDRFIWRTVTPRDKPMGPLLVATFWPELPEKIDAVYEAPQEEKAVFFAGNEYWIYSASTLERGYPKPLTSLGLPPDVQRVDAAFNWSKNKKTYIFAGDKFWRYNEVKKKMDPGFPKLIADAWNAIPDNLDAVVDLQGGGHSYFFKGAYYLKLENQSLKSVKFGSIKSDWLGC
modifications: pro-form
B3: MMP-9: commercially available full length pro-MMP 9 (protein, UniProt P14780 20-707, looked up)
pro-form: APRQRQSTLVLFPGDLRTNLTDRQLAEEYLYRYGYTRVAEMRGESKSLGPALLLLQKQLSLPETGELDSATLKAMRTPRCGVPDLGRFQTFEGDLKWHHHNITYWIQNYSEDLPRAVIDDAFARAFALWSAVTPLTFTRVYSRDADIVIQFGVAEHGDGYPFDGKDGLLAHAFPPGPGIQGDAHFDDDELWSLGKGVVVPTRFGNADGAACHFPFIFEGRSYSACTTDGRSDGLPWCSTTANYDTDDRFGFCPSERLYTQDGNADGKPCQFPFIFQGQSYSACTTDGRSDGYRWCATTANYDRDKLFGFCPTRADSTVMGGNSAGELCVFPFTFLGKEYSTCTSEGRGDGRLWCATTSNFDSDKKWGFCPDQGYSLFLVAAHEFGHALGLDHSSVPEALMYPMYRFTEGPPLHKDDVNGIRHLYGPRPEPEPRPPTTTTPQPTAPPTVCPTGPPTVHPSERPTAGPTGPPSAGPTGPPTAGPSTATTVPLSPVDDACNVNIFDAIAEIGNQLYLFKDGKYWRFSEGRGSRPQGPFLIADKWPALPRKLDSVFEERLSKKLFFFSGRQVWVYTGASVLGPRRLDKLGLGADVAQVTGALRSGRGKMLLFSGRRLWRFDVKAQMVDPRSASEVDRMFPGVPLDTHDVFQYREKAYFCQDRFYWRVSSRSELNQVDQVGYVTYDILQCPED
modifications: pro-form

Experiments:
S. aureus = test: In vitro antimicrobial activity, co-incubation with S. aureus in 5% LB and CFU count; assay type: cell-based, Staphylococcus aureus; conditions: for direct antimicrobial activity: S. aureus, similar doses and conditions as full-length MMP-12; for antimicrobial activity after heat denaturation: heat denaturation / heat inactivation; for antimicrobial activity after enzymatic inhibition: inhibited with hydroxamic acid, an MMP inhibitor
Protocol: S. aureus co-culture was incubated for 60 minutes with doses of MMP-12 C-terminal. Aliquots of cultures were diluted in PBS at 1:10 and 1:100 dilution. Dilutions were plated on LB agar plates for 18 hour incubation at 37° C. Controls consisted of column fractions that lacked MMP-12 carboxy terminal determined by immunoblotting.
(§1) MMP-12's mechanism of action as a host defense protein was investigated. To test for direct activity, functional full-length recombinant human MMP-12 was incubated with S. aureus in a 5% LB culture. […] MMP-12 enzymatic activity was not required for this antimicrobial effect.
(§2) Mid-log phase bacteria (10^5) were incubated in the absence or presence of purified MMP-12 C-terminal in a total volume of 100 μl of 10 mmol/L sodium phosphate containing 5% (vol/vol) TSB at 37° C. for 1 hour. Serial dilutions were then spread on agarose plates and the number of CFUs were determined after overnight incubation.

K. pneumonia = test: In vitro antimicrobial activity against K. pneumonia; assay type: cell-based; conditions: compared with S. aureus dose response
Protocol: as §1
Recombinant full length human MMP-12 was co-incubated with S. aureus and K. pneumonia for 2 hours. Dose response curve was for recombinant murine carboxy terminal domain against S. aureus and E. coli after one-hour co-incubation.

E. coli (K1) = test: In vitro antimicrobial activity against E. coli (K1); assay type: cell-based
Protocol: as §2

Molecule	bacterial kill (S. aureus; 16 μg/ml, 2-hour incubation, 5% LB culture)	direct antimicrobial activity (S. aureus; 5% LB culture)	direct antimicrobial activity (S. aureus; 5% LB culture, listed as pro-MMP-12)	antimicrobial activity after heat denaturation (S. aureus)	antimicrobial activity after heat denaturation (S. aureus; listed as Pro-MMP-12)	antimicrobial activity after enzymatic inhibition (S. aureus)	antimicrobial activity after enzymatic inhibition (S. aureus; listed as Pro-MMP-12)	antimicrobial activity against K. pneumonia (K. pneumonia)	antimicrobial activity against E. coli (K1) (E. coli (K1))
B1	90%	antimicrobial activity	direct anti-microbial effect	Neither the denatured MMP-12 or enzymatically inhibited enzyme lost its antimicrobial function	did not lose its anti-microbial activity	Neither the denatured MMP-12 or enzymatically inhibited enzyme lost its antimicrobial function	did not lose its anti-microbial activity	antimicrobial activity	antimicrobial activity
B2		did not demonstrate this direct antimicrobial activity							
B3		did not demonstrate this direct antimicrobial activity							
